These are literature values, as cited in publication PMC10746543, “Design principles for cyclin K molecular glue degraders” (Nature Chemical Biology, 2023).

This series has as its target CDK12-cyclin K (Homo sapiens) (UniProt Q9NYV4).

pKd: −log10 of the molar value.

Sequence of DDB1 (Q16531 2-1140): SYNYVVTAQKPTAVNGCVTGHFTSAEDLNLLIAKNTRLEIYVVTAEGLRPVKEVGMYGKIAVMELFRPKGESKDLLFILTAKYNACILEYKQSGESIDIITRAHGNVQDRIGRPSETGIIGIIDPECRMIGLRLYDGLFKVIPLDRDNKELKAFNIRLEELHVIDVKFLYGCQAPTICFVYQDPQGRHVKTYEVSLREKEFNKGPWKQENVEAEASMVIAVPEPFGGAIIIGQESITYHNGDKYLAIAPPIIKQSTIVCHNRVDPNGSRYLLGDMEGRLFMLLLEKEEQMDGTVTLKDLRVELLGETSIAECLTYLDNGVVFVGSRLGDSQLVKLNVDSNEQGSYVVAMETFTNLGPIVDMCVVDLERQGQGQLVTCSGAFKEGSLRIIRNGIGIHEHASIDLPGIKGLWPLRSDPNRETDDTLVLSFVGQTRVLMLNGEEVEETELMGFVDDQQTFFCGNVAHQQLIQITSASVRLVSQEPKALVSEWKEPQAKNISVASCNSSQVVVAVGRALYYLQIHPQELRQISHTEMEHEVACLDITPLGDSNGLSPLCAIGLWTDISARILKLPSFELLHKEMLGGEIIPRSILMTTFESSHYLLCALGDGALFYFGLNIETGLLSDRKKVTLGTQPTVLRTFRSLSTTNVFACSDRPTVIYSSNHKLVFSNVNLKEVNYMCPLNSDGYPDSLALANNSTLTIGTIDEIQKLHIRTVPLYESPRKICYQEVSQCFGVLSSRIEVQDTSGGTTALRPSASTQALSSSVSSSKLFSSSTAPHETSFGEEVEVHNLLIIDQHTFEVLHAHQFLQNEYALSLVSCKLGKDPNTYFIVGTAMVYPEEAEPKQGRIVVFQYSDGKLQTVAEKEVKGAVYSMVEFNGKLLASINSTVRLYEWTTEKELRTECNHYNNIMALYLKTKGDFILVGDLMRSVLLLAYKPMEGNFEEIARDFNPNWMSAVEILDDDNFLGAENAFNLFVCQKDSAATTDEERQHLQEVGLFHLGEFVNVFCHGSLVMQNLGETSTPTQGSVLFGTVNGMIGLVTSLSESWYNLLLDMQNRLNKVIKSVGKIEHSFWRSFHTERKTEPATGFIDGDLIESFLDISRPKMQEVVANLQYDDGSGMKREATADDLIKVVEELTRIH
Sequence of CDK12-cyclin K (Homo sapiens) (Q9NYV4 whole entry, chain 1 of 2): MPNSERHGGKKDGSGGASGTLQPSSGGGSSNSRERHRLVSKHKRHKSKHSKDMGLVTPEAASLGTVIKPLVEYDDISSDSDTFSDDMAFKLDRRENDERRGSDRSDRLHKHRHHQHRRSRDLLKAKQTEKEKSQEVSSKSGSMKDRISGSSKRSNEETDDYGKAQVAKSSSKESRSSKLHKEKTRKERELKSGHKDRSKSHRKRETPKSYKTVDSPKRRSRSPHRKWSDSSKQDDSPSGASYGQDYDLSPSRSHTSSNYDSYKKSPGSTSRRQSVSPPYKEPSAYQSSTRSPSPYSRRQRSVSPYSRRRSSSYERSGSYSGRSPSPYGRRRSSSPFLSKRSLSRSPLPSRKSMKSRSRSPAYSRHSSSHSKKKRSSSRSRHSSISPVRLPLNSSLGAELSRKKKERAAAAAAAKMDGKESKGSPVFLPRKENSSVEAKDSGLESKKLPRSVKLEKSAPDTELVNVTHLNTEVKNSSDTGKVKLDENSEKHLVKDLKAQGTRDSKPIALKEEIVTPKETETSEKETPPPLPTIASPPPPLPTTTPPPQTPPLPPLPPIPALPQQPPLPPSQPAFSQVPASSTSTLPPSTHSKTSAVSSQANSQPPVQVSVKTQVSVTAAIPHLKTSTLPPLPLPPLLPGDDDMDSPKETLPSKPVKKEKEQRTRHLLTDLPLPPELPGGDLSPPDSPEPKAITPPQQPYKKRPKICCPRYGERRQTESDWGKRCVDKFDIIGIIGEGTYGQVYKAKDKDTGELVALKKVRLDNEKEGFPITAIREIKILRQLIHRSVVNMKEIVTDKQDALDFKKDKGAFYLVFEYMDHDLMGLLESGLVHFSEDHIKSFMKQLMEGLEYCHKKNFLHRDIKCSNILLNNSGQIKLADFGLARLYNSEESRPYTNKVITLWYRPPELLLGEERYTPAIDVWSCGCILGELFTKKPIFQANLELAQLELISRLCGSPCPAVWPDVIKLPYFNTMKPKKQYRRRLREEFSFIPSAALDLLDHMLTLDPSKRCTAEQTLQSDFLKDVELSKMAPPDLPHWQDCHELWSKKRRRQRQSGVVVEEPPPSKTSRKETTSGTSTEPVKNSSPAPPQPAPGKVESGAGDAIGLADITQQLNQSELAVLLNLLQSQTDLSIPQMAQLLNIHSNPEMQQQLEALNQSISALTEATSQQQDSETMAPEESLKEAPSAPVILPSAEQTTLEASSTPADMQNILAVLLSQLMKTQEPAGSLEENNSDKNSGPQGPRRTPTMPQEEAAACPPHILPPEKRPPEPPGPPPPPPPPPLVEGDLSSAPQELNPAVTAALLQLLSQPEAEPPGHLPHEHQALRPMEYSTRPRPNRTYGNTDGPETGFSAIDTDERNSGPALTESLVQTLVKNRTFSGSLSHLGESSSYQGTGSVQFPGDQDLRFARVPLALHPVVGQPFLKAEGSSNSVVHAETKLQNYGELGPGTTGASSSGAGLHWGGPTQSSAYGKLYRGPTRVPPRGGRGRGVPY
Sequence of CDK12-cyclin K (Homo sapiens) (O75909 whole entry, chain 2 of 2, further chain): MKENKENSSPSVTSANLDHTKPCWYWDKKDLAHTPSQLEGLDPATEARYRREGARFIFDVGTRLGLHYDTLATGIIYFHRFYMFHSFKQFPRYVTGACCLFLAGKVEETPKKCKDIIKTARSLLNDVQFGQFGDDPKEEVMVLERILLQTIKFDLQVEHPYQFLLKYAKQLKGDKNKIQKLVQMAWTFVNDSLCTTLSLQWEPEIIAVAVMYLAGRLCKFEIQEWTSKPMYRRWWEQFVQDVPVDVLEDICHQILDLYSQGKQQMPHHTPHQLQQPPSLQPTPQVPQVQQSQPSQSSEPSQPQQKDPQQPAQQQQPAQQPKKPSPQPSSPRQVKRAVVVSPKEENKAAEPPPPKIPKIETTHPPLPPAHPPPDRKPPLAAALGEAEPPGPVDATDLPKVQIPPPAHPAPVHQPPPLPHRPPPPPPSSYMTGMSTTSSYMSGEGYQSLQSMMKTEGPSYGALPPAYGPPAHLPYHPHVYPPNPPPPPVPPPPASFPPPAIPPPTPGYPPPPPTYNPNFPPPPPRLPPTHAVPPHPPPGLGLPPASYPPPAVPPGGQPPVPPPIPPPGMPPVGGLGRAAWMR

Consider DDB1 (from UniProt Q16531), for which the pKd (as a rule, the Kd on a negative log10 scale, so that one unit is a factor of ten) is 4.30.
